Reference: patent publication US20240166739A1 (KISOJI BIOTECHNOLOGY, published 2024)

B1: KC036 (PD-1-specific binding agent; HEWL; PD1; HEWL) (Fc fusion)
chain: QVQLVESGGGSVQAGGSLRLSCAASGSTDSIEYMTWFRQAPGKAREGVAALYTHTGNTYYTDSVKGRFTISQDKAKNMAYLRMDSVKSEDTAIYTCGATRKYVPVRFALDQSSYDYWGQGTQVTVSSEPKSCDKTHTCPPCPAPELLGGPSVFLFPPKPKDTLMISRTPEVTCVVVDVSHEDPEVKFNWYVDGVEVHNAKTKPREEQYNSTYRVVSVLTVLHQDWLNGKEYKCKVSNKALPAPIEKTISKAKGQPREPQVYTLPPSREQMTKNQVSLTCLVKGFYPSDIAVEWESNGQPENNYKTTPPVLNSDGSFFLYSKLTVDKSRWQQGNVFSCSVMHEALHNHYTQESLSLSPGKAPAPAPAPAPKAQVQLQESGGGWVQPGGSLRLSCVASGFTFSRSSMSWHRQAPGKERDLVAIISSSGIITHYSDSVKGRFTISRDNAKDTVYLQMNSLKPEDTAVYVCNAVLDDDSGDYWGQGTQVTVSSGGGGSGGGGSGGGGSQVQLVESGGGSVQAGGSLRLSCAASGSTDSIEYMTWFRQAPGKAREGVAALYTHTGNTYYTDSVKGRFTISQDKAKNMAYLRMDSVKSEDTAIYTCGATRKYVPVRFALDQSSYDYWGQGTQVTVSS
notes: Anti-HEWL VHH - IgG1 hinge-CH2-mutated CH3 - rigid linker - KC009 anti-PD-1 VHH - (G4S)3 - anti-HEWL VHH; expressed as dimer; may comprise a His-tag or not
B2: KC035 (HEWL; HEWL; HEWL negative control binding agent) (Fc fusion)
chain: QVQLVESGGGSVQAGGSLRLSCAASGSTDSIEYMTWFRQAPGKAREGVAALYTHTGNTYYTDSVKGRFTISQDKAKNMAYLRMDSVKSEDTAIYTCGATRKYVPVRFALDQSSYDYWGQGTQVTVSSEPKSCDKTHTCPPCPAPELLGGPSVFLFPPKPKDTLMISRTPEVTCVVVDVSHEDPEVKFNWYVDGVEVHNAKTKPREEQYNSTYRVVSVLTVLHQDWLNGKEYKCKVSNKALPAPIEKTISKAKGQPREPQVYTLPPSREQMTKNQVSLTCLVKGFYPSDIAVEWESNGQPENNYKTTPPVLNSDGSFFLYSKLTVDKSRWQQGNVFSCSVMHEALHNHYTQESLSLSPGKAPAPAPAPAPKAQVQLVESGGGSVQAGGSLRLSCAASGSTDSIEYMTWFRQAPGKAREGVAALYTHTGNTYYTDSVKGRFTISQDKAKNMAYLRMDSVKSEDTAIYTCGATRKYVPVRFALDQSSYDYWGQGTQVTVSSGGGGSGGGGSGGGGSQVQLVESGGGSVQAGGSLRLSCAASGSTDSIEYMTWFRQAPGKAREGVAALYTHTGNTYYTDSVKGRFTISQDKAKNMAYLRMDSVKSEDTAIYTCGATRKYVPVRFALDQSSYDYWGQGTQVTVSS
notes: Three anti-HEWL VHHs in the VHH-Fc-VHH-VHH format; negative control for KC036

How the values were obtained:
[1] = molecular target: T1, recombinant human PD-1 protein (human, UniProt Q15116 25-167); experiment: ELISA on coated recombinant PD-1 (FIG. 9A)
T1 construct: Bought protein; also called human recombinant PD1 protein; PD-1 recombinant protein
T1 sequence (Q15116 25-167 limits assumed): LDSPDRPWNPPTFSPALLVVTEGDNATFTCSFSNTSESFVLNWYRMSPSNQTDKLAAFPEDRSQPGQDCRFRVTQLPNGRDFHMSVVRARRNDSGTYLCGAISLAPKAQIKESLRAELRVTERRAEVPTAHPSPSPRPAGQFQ
Procedure: (§1) The binding of binding agents comprising anti-PD-1 and -CD47 antigen binding domain to recombinant human or cynomolgous PD-1 (Cedarlane, Cat. No. HPLC-10377-H08H-100) or recombinant human or cynomolgous CD47 (Cedarlane, Cat. No. 12283-H08H-200 and 90869-C08H) was assessed by ELISA (FIG. 9A, FIG. 9B, FIG. 9C, FIG. 9D, FIG. 22, FIG. 23). […] The monoclonal anti-CD47 antibody (clone B6H12) was used as a positive control in CD47 binding assays (Biolegend, Cat. No. 401401).
(§2) Briefly, recombinant proteins were coated on 96-well plates. Plates were covered and left at 4° C. overnight. The next day, plates were washed once with PBS and blocked with blocking buffer for 1 hour at room temperature. Binding agents were tested at the indicated concentration, diluted in the blocking buffer, and incubated for 1 hour at 37° C. After incubation, plates were washed three times with washing buffer. Plates were incubated with anti-human-Fc-HRP (Sigma-Aldrich, Cat. No. APi 13P) diluted at 1:5000 for 1 hour at room temperature, then washed three times with PBS-T washing buffer. The signal was developed with SuperSignal™ ELISA Pico Chemiluminescent Substrate (Thermofisher, Cat. No. 37069). The plates were read on a SpectraMax™ i3x Multi-Mode Microplate Reader (Molecular Devices).

[2] = molecular target: T2, human PD-1 on CHO-PD1 cells (human, UniProt Q15116 25-288); experiment: Flow cytometry, 20 µg/mL, CHO-PD1 against CHO parental cells (FIG. 10)
T2 construct: whole, on cells; also called CHO-PD-1 cell line
T2 sequence (Q15116 25-288): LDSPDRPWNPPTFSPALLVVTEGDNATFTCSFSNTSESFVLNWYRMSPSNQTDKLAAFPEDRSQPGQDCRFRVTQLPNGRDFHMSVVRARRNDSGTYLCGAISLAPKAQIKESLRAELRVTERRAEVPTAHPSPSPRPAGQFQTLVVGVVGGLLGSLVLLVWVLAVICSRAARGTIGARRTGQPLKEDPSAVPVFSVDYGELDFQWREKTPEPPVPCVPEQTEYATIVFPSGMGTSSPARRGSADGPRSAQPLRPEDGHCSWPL
Procedure: The binding of binding agents to cells was assessed by flow cytometry. […] Binding agents comprising anti-PD-1 antigen binding domain, were diluted in FACS staining buffer to 20 μg/mL and added and incubated with cells for 30 minutes on ice. The PD-1 antibody (clone EH12.2H7, Biolegend) was used as a positive control.

[3] = molecular target: T1, recombinant human PD-1 protein; experiment: ELISA on coated recombinant PD-1, anti-human-Fc-HRP detection
Procedure: as §1, §2

Row | Binder | binding result [1] | binding result [2] | binding result [3]
1 | B1 | binds | binds | 
2 | B2 |  |  | no binding
